Measured values: article PMC11489326, “Characterization of lignin-degrading enzyme PmdC, which catalyzes a key step in the synthesis of polymer precursor 2-pyrone-4,6-dicarboxylic acid” (The Journal of Biological Chemistry, 2024)

Target: CHMS dehydrogenase PmdC from Comamonas testosteroni (Comamonas testosteroni)
Test: SEC; purified PmdC (wild type and mutants) in solution; conditions of the run not told in the text shown (Figs. S5, S12)

Substance: CHMS dehydrogenase PmdC from Comamonas testosteroni (enzyme)
- stoichiometry N: 2
